Measured values reported in patent US20230295259A1 (Protagonist Therapeutics, Inc., priority 2020, published 2023).
Starred links: 1 amine or outer side, 2 acyl side, 3 side chain; linkers in the order of their positions; H or OH if unused. Positions of bridges follow the written chain, without caps; N, C: chain ends. Non-standard residues stand in square brackets, D forms with d. Groups on a side chain read outwards from the residue. *: point of attachment. Glu(OMe) = COC(=O)CC[C@H](N[*:1])C(=O)[*:2]; C18 diacid = O=C(O)CCCCCCCCCCCCCCCCC(=O)*; Dip = N[C@H](C(=O)O)C(c1ccccc1)c1ccccc1; Palmitoyl = CCCCCCCCCCCCCCCC(=O)*; β3hF = N[C@H](CC(=O)O)Cc1ccccc1; Tle = CC(C)(C)[C@H](N)C(=O)O; hLeu = CC(C)CC[C@H](N)C(=O)O; 4Amb = NCc1ccc(C(=O)O)cc1; Isovaleryl = CC(C)CC(=O)*; Ac6c = NC1(C(=O)O)CCCCC1; Dap = NC[C@H](N)C(=O)O; AEEA = NCCOCCOCC(=O)O; Ahx = NCCCCCC(=O)O

B1: Seq. No. 528 (peptide)
peptide: XXTHXPCIXXXXC
modifications: [Isovaleric Acid]-[Glu(OMe)]-T-H-[Dpa]-P-C-I-[(D)Lys]-[bhPhe]-[Lys(Ahx_DMG_N_2ae_Palm)]-[(D)Lys]-C-NH2
B2: Seq. No. 547 (peptide)
peptide: XEXHXPCIXXXC
modifications: not fully specified; [Isovaleric Acid]-E-[Dap]-H-[Dpa]-P-C-I-[Lys(1PEG2_1PEG2_Ahx_C18_Diacid)]-[bhPhe]-[(D)Lys]-C-NH2
B3: Seq. No. 543 (peptide)
peptide: XETHXPCIXXXC
modifications: [Isovaleric Acid]-E-T-H-[Dpa]-P-C-I-[Lys(1PEG2_1PEG2_IsoGlu_C18_Diacid)]-[bhPhe]-[(D)Lys(Carnitine)]-C-NH2
B4: Seq. No. 525 (peptide)
peptide: XETHXPCIXXXXC
modifications: [Isovaleric Acid]-E-T-H-[Dpa]-P-C-I-[(D)Lys]-[bhPhe]-[Lys(DMG_N_2ae_Palm)]-[(D)Lys]-C-NH2
B5: Seq. No. 503 (peptide)
peptide: XXTHXPCIXXXC
modifications: [Isovaleric Acid]-[Glu(OMe)]-T-H-[Dpa]-P-C-I-[Lys(1PEG2_1PEG2_Dap_C18_Diacid)]-[Phe(4-COOH)]-[(D)Lys]-C-NH2
B6: Seq. No. 544 (peptide)
peptide: XETHXPCIXXXC
modifications: [Isovaleric Acid]-E-T-H-[Dpa]-P-C-I-[Lys(PEG2_1PEG2_DMG_N_2ae_C18_Diacid)]-[bhPhe]-[(D)Lys]-C-NH2
B7: Seq. No. 517 (peptide)
peptide: XETHXPCIXXXC
modifications: [Isovaleric Acid]-E-T-H-[Dpa]-P-C-I-[Lys(PEG12_Dap_C18_Diacid)]-[bhPhe]-[(D)Lys]-C-NH2
B8: Seq. No. 552 (peptide)
peptide: XETXXPCIXXXXC
modifications: not fully specified; [Isovaleric Acid]-E-T-[Lys(Acrylamide)]-[Dpa]-P-C-I-[(D)Lys]-[bhPhe]-[Lys(Ahx_Palm)]-[(D)Lys]-C-NH2
B9: Seq. No. 476 (peptide)
peptide: XETHXPCIXXXXC
modifications: [Isovaleric Acid]-E-T-H-[Dpa]-P-C-I-[Lys(Ac)]-[bhPhe]-[Lys(Ahx_Palm)]-[(D)Arg]-C-NH2
B10: Seq. No. 507 (peptide)
peptide: XXTHXPCIXXXC
modifications: [Isovaleric Acid]-[Glu(OMe)]-T-H-[Dpa]-P-C-I-[Lys(1PEG2_1PEG2_Dap_C18_Diacid)]-[Achc]-[(D)Lys]-C-NH2
B11: Seq. No. 548 (peptide)
peptide: XEXHXPCIXXXXC
modifications: not fully specified; [Isovaleric Acid]-E-[Dab]-H-[Dpa]-P-C-I-[(D)Lys]-[bhPhe]-[Lys(Ahx_Palm)]-[(D)Lys]-C-NH2
B12: Seq. No. 540 (peptide)
peptide: XXTHXPCIXXXC
modifications: [Isovaleric Acid]-[(D)Glu]-T-H-[Dpa]-P-C-I-[Lys(1PEG2_1PEG2_Ahx_C18_Diacid)]-[bhPhe]-[(D)Lys(PEG11_OMe)]-C-NH2
B13: Seq. No. 546 (peptide)
peptide: XEXHXPCIXXXC
modifications: [Isovaleric Acid]-E-[Dab]-H-[Dpa]-P-C-I-[Lys(1PEG2_1PEG2_Ahx_C18_Diacid)]-[bhPhe]-[(D)Lys]-C-NH2
B14: Seq. No. 521 (peptide)
peptide: XXTHXPCIXXXC
modifications: [Isovaleric Acid]-[Glu(OMe)]-T-H-[Dpa]-P-C-I-[Lys(1PEG2_1PEG2_Dap_C18_Diacid)]-[bhPhe]-[(D)Lys(Ac)]-C-NH2
B15: Seq. No. 545 (peptide)
peptide: XXTHXPCIXXXC
modifications: [Isovaleric Acid]-[Glu(OMe)]-T-H-[Dpa]-P-C-I-[Lys(PEG2_1PEG2_DMG_N_2ae_C18_Diacid)]-[bhPhe]-[(D)Lys]-C-NH2

biological target: T1, human ferroportin (SLC40A1) fused in frame with GFP, stably expressed in HEK293 cells (human, UniProt Q9NP59 1-571); assay: cell-based or functional assay
T1 sequence (looked up): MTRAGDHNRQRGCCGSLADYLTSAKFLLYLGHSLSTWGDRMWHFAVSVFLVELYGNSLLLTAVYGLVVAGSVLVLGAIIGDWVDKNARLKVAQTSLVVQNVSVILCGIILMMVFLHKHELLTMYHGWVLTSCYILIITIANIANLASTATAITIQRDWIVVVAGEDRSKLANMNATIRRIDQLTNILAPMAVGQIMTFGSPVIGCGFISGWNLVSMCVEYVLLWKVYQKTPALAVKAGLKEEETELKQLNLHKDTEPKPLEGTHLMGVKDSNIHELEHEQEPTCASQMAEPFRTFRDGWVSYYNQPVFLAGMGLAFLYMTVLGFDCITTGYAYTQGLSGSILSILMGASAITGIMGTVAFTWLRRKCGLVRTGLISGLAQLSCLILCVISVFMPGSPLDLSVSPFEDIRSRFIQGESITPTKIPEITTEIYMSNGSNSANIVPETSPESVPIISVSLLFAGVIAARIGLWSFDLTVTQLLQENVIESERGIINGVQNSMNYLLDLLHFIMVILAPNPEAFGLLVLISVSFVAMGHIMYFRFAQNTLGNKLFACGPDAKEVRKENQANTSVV

Binder	IC50: FPN internalisation
Isovaleryl-ETH[Dip]PCI[dK][β3hF]K([Ahx-Palmitoyl])[dR]C-NH2 (disulfide 6-12 (inferred)) [Seq. No. 475]	42.8 nM
B1	32.4 nM
B2	24.8 nM
Isovaleryl-[Glu(OMe)]TH[Dip]PC[Ac6c]K([AEEA-AEEA-Dap-C18 diacid])[β3hF][dK]C-NH2 (disulfide 6-11 (inferred)) [Seq. No. 512]	37.4 nM
Isovaleryl-[Glu(OMe)]TH[Dip]PCI[dK][β3hF]K([Ahx-Palmitoyl])[dR]C[dR]-NH2 (disulfide 6-12 (inferred)) [Seq. No. 500]	52.5 nM
B3	13.2 nM
B4	7.98 nM
B5	180 nM
B6	9.26 nM
B7	9.58 nM
B8	48 nM
Isovaleryl-[Glu(OMe)]TH[Dip]PC[dR]K([AEEA-AEEA-Dap-C18 diacid])[β3hF][dK]C-NH2 (disulfide 6-11 (inferred)) [Seq. No. 536]	94.1 nM
B9	1760 nM
Isovaleryl-[Glu(OMe)]TH[Dip]PCIK([AEEA-AEEA-Dap-C18 diacid])[β3hF][dR]C-NH2 (disulfide 6-11 (inferred)) [Seq. No. 535]	21 nM
Isovaleryl-[Glu(OMe)]TH[Dip]PC[Tle]K([AEEA-AEEA-Dap-C18 diacid])[β3hF][dK]C-NH2 (disulfide 6-11 (inferred)) [Seq. No. 514]	13.6 nM
B10	29.6 nM
Isovaleryl-[Glu(OMe)]TH[Dip]PC[hLeu]K([AEEA-AEEA-Dap-C18 diacid])[β3hF][dK]C-NH2 (disulfide 6-11 (inferred)) [Seq. No. 515]	12.5 nM
B11	46.3 nM
Isovaleryl-ETH[Dip]PCI[dK][β3hF]K([Ahx-Palmitoyl])[dR]C[dR]-NH2 (disulfide 6-12 (inferred)) [Seq. No. 474]	54.6 nM
Isovaleryl-ETHFPCIK(Ac)F[dK]C-NH2 (disulfide 6-11 (inferred)) [Seq. No. 478]	69.9 nM
Isovaleryl-[Glu(OMe)]TH[Dip]PCI[dK][β3hF]K([Ahx-Palmitoyl])[dR]C-NH2 (disulfide 6-12 (inferred)) [Seq. No. 501]	39.9 nM
B12	142 nM
B13	53.6 nM
B14	10.1 nM
B15	14.6 nM
Isovaleryl-ETH[Dip]PC[4Amb]K([AEEA-AEEA-Ahx-C18 diacid])[β3hF][dK]C-NH2 (not fully specified (bridges); cysteine pairing not given here) [Seq. No. 550]	13.1 nM
